Reference: paper PMC10746227, “The two-component system WalKR provides an essential link between cell wall homeostasis and DNA replication in Staphylococcus aureus” (mBio, 2023)

Target: T1, WalK-LgBIT (native WalK) (S. aureus, UniProt Q2FKN7 1-608)
T1 construct: WalK, transmembrane sensor histidine kinase of the WalKR two-component system, S. aureus NRS384 (USA300); open reading frame with the stop codon removed; also called WalK Wt; source: S. aureus NRS384, from plasmid pLgBIT, in living cells
T1 sequence (looked up): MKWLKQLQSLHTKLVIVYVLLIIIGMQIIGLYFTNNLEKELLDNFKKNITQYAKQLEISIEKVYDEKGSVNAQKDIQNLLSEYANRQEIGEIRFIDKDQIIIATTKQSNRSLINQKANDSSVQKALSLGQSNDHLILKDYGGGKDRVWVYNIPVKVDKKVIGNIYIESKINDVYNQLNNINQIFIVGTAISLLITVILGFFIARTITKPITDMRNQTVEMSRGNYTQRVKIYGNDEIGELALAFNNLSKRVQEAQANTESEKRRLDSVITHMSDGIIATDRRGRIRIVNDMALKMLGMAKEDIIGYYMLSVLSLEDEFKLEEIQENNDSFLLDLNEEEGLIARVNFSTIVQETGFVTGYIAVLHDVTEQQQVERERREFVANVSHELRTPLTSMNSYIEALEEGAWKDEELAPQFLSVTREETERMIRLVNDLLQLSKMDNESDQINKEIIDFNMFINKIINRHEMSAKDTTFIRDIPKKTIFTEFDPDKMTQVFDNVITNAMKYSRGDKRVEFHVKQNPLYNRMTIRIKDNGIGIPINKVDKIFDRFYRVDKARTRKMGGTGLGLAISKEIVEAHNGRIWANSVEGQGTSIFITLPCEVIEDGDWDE
Test: split reporter (BiFC, NanoBiT); WalR-SmBIT (pSmBIT) and WalK-LgBIT (pLgBIT) alleles together in living S. aureus NRS384; LB with chloramphenicol, kanamycin and Nano-Glo substrate 1:5,000, 37°C, 96-well plate; OD600nm and light emission (RLU) read every 10 min over 8 h; lag and exponential phase
Settings: partners not purified

B1: WalR_(T101A)-SmBIT (natural protein)
chain: MARKVVVVDDEKPIADILEFNLKKEGYDVYCAYDGNDAVDLIYEEEPDIVLLDIMLPGRDGMEVCREVRKKYEMPIIMLTAKDSEIDKVLGLELGADDYVAKPFSTRELIARVKANLRRHYSQPAQDTGNVTNEITIKDIVIYPDAYSIKKRGEDIELTHREFELFHYLSKHMGQVMTREHLLQTVWGYDYFGDVRTVDVTIRRLREKIEDDPSHPEYIVTRRGVGYFLQQHE
notes: WalR, response regulator, S. aureus NRS384 (USA300); open reading frame with the stop codon removed; also called "down" mutant; source: S. aureus NRS384, from plasmid pSmBIT, in living cells
**Q.** How did the “fold change of the maximal level of interaction against native WalK/WalR” value turn out when B1 was run?
**A.** 1.5 fold
